T1: plasma-derived human activated protein C (APC) (UniProt P04070 43-461)
T1 chain: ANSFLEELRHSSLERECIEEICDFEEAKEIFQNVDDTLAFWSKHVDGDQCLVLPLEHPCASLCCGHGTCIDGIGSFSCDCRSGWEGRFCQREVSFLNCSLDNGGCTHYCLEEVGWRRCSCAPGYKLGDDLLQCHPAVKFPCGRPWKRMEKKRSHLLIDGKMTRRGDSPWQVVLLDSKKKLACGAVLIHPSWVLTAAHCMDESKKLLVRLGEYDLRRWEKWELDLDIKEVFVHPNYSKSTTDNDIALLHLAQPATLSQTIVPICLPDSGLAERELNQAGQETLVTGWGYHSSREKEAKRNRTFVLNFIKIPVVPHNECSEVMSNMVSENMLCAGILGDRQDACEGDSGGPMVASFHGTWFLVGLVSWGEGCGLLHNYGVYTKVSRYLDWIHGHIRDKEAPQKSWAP

B1: TPP-24829 (antibody, V domains shown)
VL: DIVLTQSPASLAVSPGQRATITCKASESVDSFGATFMHWYQQKPGQPPKLLIYLASNRASGVPDRFSGSGSGTDFTLKISRVEAEDVGVYYCQQNNEDPYTFGQGTKLEIK
B2: TPP-24845 (antibody, V domains shown)
VL: B1 VL with E27Q, D30S
B3: TPP-24861 (antibody, V domains shown)
VL: B1 VL with L4M, A9L, A12P, S14T, Q17E, R18P, T20S, T22S, K24R, A25S
B4: TPP-24907 (antibody, V domains shown)
VL: EIVLTQSPGTLSLSPGERATLSCRASQSVSSFGATFMHWYQQKPGQPPKLLIYLASNRASGVPDRFSGSGSGTDFTLTINPVEADDTANYYCQQNNEDPYTFGQGTKLEIK
B5: TPP-24869 (antibody, V domains shown)
VL: DIVMTQSPLSLPVTPGEPASISCRSSESVDSFGATFMHWYLQKPGQSPQLLIYLASNRASGVPDRFSGSGSGTDFTLKISRVEAEDVGVYYCQQNNEDPYTFGQGTKLEIK
B6: TPP-24913 (antibody, V domains shown)
VL: EIVLTQSPGTLSLSPGERATLSCRASQSVSSFGATFMHWYLQKPGQSPQLLIYLASNLESGVPARFSGSGSGTDFTLKISRVEAEDVGVYYCQQNNEDPYTFGQGTKLEIK
B7: TPP-24911 (antibody, V domains shown)
VL: B4 VL with Q41L, P47S, K49Q, R58L, A59E, D64A
B8: TPP-24917 (antibody, V domains shown)
VL: B6 VL with L58R, E59A, A64D
B9: TPP-24893 (antibody, V domains shown)
VL: B6 VL with Q27E, S30D, L41Q, S47P, Q49K, L58R, E59A, A64D
B10: TPP-24901 (antibody, V domains shown)
VL: B6 VL with Q27E, S30D, L58R, E59A, A64D
B11: TPP-24897 (antibody, V domains shown)
VL: B6 VL with Q27E, S30D
B12: TPP-24909 (antibody, V domains shown)
VL: B6 VL with L41Q, S47P, Q49K, L58R, E59A, A64D
B13: TPP-24847 (antibody, V domains shown)
VL: DIVLTQSPASLAVSPGQRATITCKASQSVSSFGATFMHWYLQKPGQSPQLLIYLASNLESGVPARFSGSGSGTDFTLTINPVEADDTANYYCQQNNEDPYTFGQGTKLEIK
B14: TPP-24841 (antibody, V domains shown)
VL: B1 VL with E27Q, D30S, R58L, A59E, D64A
B15: TPP-24843 (antibody, V domains shown)
VL: B13 VL with L41Q, S47P, Q49K, L58R, E59A, A64D
B16: TPP-24853 (antibody, V domains shown)
VL: B1 VL with E27Q, D30S, Q41L, P47S, K49Q
B17: TPP-24827 (antibody, V domains shown)
VL: B1 VL with K78T, S80N, R81P, E85D, V87T, G88A, V89N
B18: TPP-24833 (antibody, V domains shown)
VL: B1 VL with Q41L, P47S, K49Q, R58L, A59E, D64A
B19: TPP-24851 (antibody, V domains shown)
VL: B13 VL with L58R, E59A, A64D
B20: TPP-24875 (antibody, V domains shown)
VL: DIVMTQSPLSLPVTPGEPASISCRSSQSVSSFGATFMHWYQQKPGQPPKLLIYLASNRASGVPDRFSGSGSGTDFTLTINPVEADDTANYYCQQNNEDPYTFGQGTKLEIK
B21: TPP-26871 (antibody, V domains shown)
VH: EVQLVESGGGLVQPGGSLRLSCAASGFTFSNYYMNWVRQAPGKGLEWVSYISSSSSTIYYADSVKGRFTISRDDSKNSLYLQMNSLKTEDTAVYYCAREGDYFDYWGQGTLVTVSS
VL: DIVLTQSPASLAVSPGQRATITCKASQSVSSFGATFMHWYQQKPGQPPKLLIYLASNRASGVPDRFSGSGSGTDFTLTINPVEADDTANYYCQQNNEDPYTFGQGTKLEIKR
B22: TPP-26873 (antibody, V domains shown)
VH: B21 VH
VL: B21 VL with Q41L, P47S, K49Q, T78K, N80S, P81R, D85E, T87V, A88G, N89V
B23: TPP-26935 (antibody, V domains shown)
VH: EVQLVESGGGLVQPGGSLRLSCAASGFTFSNYYINWVRQAPGKGLEWVGDIRLKSNNYEKHYAESVKGRFTISRDDSKNSLYLQMNSLKTEDTAVYYCAREGDYFDYWGQGTLVTVSS
VL: EIVLTQSPGTLSLSPGERATLSCRASQSVSSFGATFMHWYQQKPGQPPKLLIYLASNRASGVPDRFSGSGSGTDFTLKISRVEAEDVGVYYCQQNNEDPYTFGQGTKLEIKR
B24: TPP-26925 (antibody, V domains shown)
VH: B23 VH with I34M, N35S
VL: B21 VL with Q41L, P47S, K49Q, T78K, N80S, P81R, D85E, T87V, A88G, N89V
B25: TPP-26918 (antibody, V domains shown)
VH: B23 VH with I34M, N35S
VL: B21 VL with Q27E, S30D, T78K, N80S, P81R, D85E, T87V, A88G, N89V
B26: TPP-29864 (antibody, V domains shown)
VH: B21 VH
VL: B23 VL with N57R
B27: TPP-29865 (antibody, V domains shown)
VH: B21 VH with M34F
VL: B23 VL
B28: TPP-29850 (antibody, V domains shown)
VH: B21 VH
VL: B23 VL with N57W
B29: TPP-26922 (antibody, V domains shown)
VH: B23 VH with I34M, N35S
VL: B23 VL
B30: TPP-29866 (antibody, V domains shown)
VH: B21 VH with T57P
VL: B23 VL
B31: TPP-29853 (antibody, V domains shown)
VH: B21 VH with F103M
VL: B23 VL
B32: TPP-29863 (antibody, V domains shown)
VH: B21 VH
VL: B23 VL with S28R
B33: TPP-29858 (antibody, V domains shown)
VH: B21 VH
VL: B23 VL with S56R

Experimental findings from patent US20250188189A1 (published 2025) are described below.

Where a chain is given by its changes, count along the chain named.

One assay addresses T1, plasma-derived human activated protein …. As to the kind of experiment: SPR.
In general, Kd refers to a measure of binding affinity in units of concentration. Molecule B1 had a Kd of 31.3 nM.

B2: the Kd was 54 nM.

B3: the Kd worked out at 24.1 nM.

In turn, B4 displayed a Kd of 45.9 nM.

In turn, B5 gave a Kd of 24.2 nM.

In the case of B6, the affinity, expressed as Kd, was 85.6 nM.

Molecule B7 came in with a dissociation constant Kd of 43.2 nM.

B8 showed a Kd of 44.6 nM.

B9 returned a Kd of 28.6 nM.

B10 displayed a Kd of 26.9 nM.

In turn, B11 showed a Kd of 47.9 nM.

The molecule B12 displayed a Kd of 46.2 nM.

Take B13: the Kd was found to be 85.5 nM.

The molecule B14 showed a Kd of 93.2 nM.

On to B15, for which the Kd was found to be 48.6 nM.

In the case of B16, the Kd was 51.5 nM.

B17 yielded a Kd of 31.7 nM.

B18 displayed a Kd of 49 nM.

B19 displayed a Kd of 49.8 nM.

As to B20, the affinity, expressed as Kd, was 47.7 nM.

For another assay the target is unchanged. As to the kind of experiment: SPR. The source holds these as a separate data set. (SPR reads the build-up and loss of mass on a sensor chip optically.)
B21 came in with a Kd of 13.8 nM.

Take B22: the affinity, expressed as Kd, was 11.2 nM.

As for B23, binding was put at a Kd of 18.6 nM.

Turning to B24, binding was characterised by a dissociation constant (Kd) of 27.9 nM.

B25 displayed a Kd of 13.4 nM.

The target is the same in another assay. Briefly: SPR; head prints nM; kd/ka gives M.
The molecule B26 showed a Kd of 10.4 nM.

B27 displayed a Kd of 12.7 nM.

Turning to B28, the Kd turned out to be 3.13 nM.

B29 registered a Kd of 91.7 nM.

Regarding B30, the Kd turned out to be 22.2 nM.

Take B31: binding was put at a Kd of 23.3 nM.

B32 showed a Kd of 23.8 nM.

Turning to B33, the dissociation constant (Kd) was determined as 24.9 nM.
